The values below come from the supplement of paper PMC9112550, “Optimization of the antimicrobial peptide Bac7 by deep mutational scanning” (BMC Biology, 2022).

The data set relates to Escherichia coli TOP10. As to the kind of experiment: shrunken log2 fold change of peptide-encoding DNA abundance (4.5 h post-induction vs induction); higher = less antimicrobial activity (less host growth inhibition). The conditions noted are these: time post-induction: 4.5 h; library: site-saturation at positions 5, 18, 19, 20.
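Note: peptides expressed intracellularly from a pBAD plasmid library in pooled LB shake-flask culture, induced with 0.3% L-arabinose, DNA abundance read by NGS, three biological replicates, DESeq2 with apeglm shrinkage.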

For the sequence RRIRLRPPRLPRPRPRPNWMPRP, the “shrunken log2 fold change” value is -0.296. RRIRWRPPRLPRPRPRPPMHPRP: the “shrunken log2 fold change” value came to 0.429.

For the sequence RRIRPRPPRLPRPRPRPTEPPRP, the “shrunken log2 fold change” value turned out to be 0.179. The same measure for RRIRIRPPRLPRPRPRPHITPRP: -0.66. Take RRIRWRPPRLPRPRPRPDKIPRP: the “shrunken log2 fold change” value was -0.0504. In the case of RRIRARPPRLPRPRPRPIHAPRP it was 0.0915. In the case of RRIRCRPPRLPRPRPRPALPPRP it was 0.143; in that of RRIRPRPPRLPRPRPRPMDYPRP, -0.165. The same measure for RRIRHRPPRLPRPRPRPCCYPRP: -0.496. As for RRIRIRPPRLPRPRPRPRVTPRP, the “shrunken log2 fold change” value was -0.0426.

For RRIRTRPPRLPRPRPRPQICPRP, the “shrunken log2 fold change” value is 0.13. Take RRIRTRPPRLPRPRPRPFYKPRP: the “shrunken log2 fold change” value is -0.6. In the case of RRIRARPPRLPRPRPRPYWQPRP it was 0.046. The same measure for RRIRVRPPRLPRPRPRPFYCPRP: -0.605. The same measure for RRIRCRPPRLPRPRPRPHIYPRP: -0.954; for RRIRRRPPRLPRPRPRPQHLPRP: -0.289; for RRIRCRPPRLPRPRPRPSGRPRP: 0.235. Turning to RRIRARPPRLPRPRPRPGKFPRP, the “shrunken log2 fold change” value is -0.167. In the case of RRIRCRPPRLPRPRPRPASQPRP it was -0.0515; in that of RRIRNRPPRLPRPRPRPIPGPRP, -0.0332; in that of RRIRTRPPRLPRPRPRPMPLPRP, -0.104. In the case of RRIRKRPPRLPRPRPRPHSLPRP it was 0.0727; in that of RRIRPRPPRLPRPRPRPDESPRP, -0.188; in that of RRIRLRPPRLPRPRPRPMSCPRP, 0.0448. The same measure for RRIRQRPPRLPRPRPRPAKTPRP: -0.0724. As for RRIRIRPPRLPRPRPRPHDNPRP, the “shrunken log2 fold change” value was -0.53.

RRIRFRPPRLPRPRPRPAQMPRP: the “shrunken log2 fold change” value was 0.121. The same measure for RRIRLRPPRLPRPRPRPDQGPRP: -0.034; for RRIRQRPPRLPRPRPRPFTDPRP: 0.0299; for RRIRMRPPRLPRPRPRPENCPRP: 0.0159. In the case of RRIRGRPPRLPRPRPRPDVHPRP it was 0.867; in that of RRIRKRPPRLPRPRPRPYTPPRP, -0.344.

RRIRNRPPRLPRPRPRPWMVPRP: the “shrunken log2 fold change” value stood at 0.131.

With RRIRIRPPRLPRPRPRPAMFPRP, the “shrunken log2 fold change” value was -0.45. Take RRIRERPPRLPRPRPRPRFTPRP: the “shrunken log2 fold change” value worked out at 1.87. The same measure for RRIRGRPPRLPRPRPRPIFSPRP: 0.312; for RRIRFRPPRLPRPRPRPLYLPRP: -0.826.

For RRIRRRPPRLPRPRPRPIQSPRP, the “shrunken log2 fold change” value worked out at 0.0301.

On to RRIRDRPPRLPRPRPRPAEHPRP, for which the “shrunken log2 fold change” value is -0.0618. The same measure for RRIRGRPPRLPRPRPRPQPRPRP: 0.9; for RRIRRRPPRLPRPRPRPRNRPRP: -0.0263; for RRIRQRPPRLPRPRPRPAEAPRP: 0.61.

Take RRIRDRPPRLPRPRPRPHHLPRP: the “shrunken log2 fold change” value is -0.0476. The same measure for RRIRNRPPRLPRPRPRPYLYPRP: -0.317; for RRIRNRPPRLPRPRPRPKKVPRP: -0.0914.

With RRIRIRPPRLPRPRPRPCEYPRP, the “shrunken log2 fold change” value was -0.115. In the case of RRIRPRPPRLPRPRPRPVDFPRP it was 0.0795.

In the case of RRIRCRPPRLPRPRPRPCFDPRP, the “shrunken log2 fold change” value is -0.526. The same measure for RRIRLRPPRLPRPRPRPGFMPRP: -0.382; for RRIRHRPPRLPRPRPRPLMHPRP: -0.414; for RRIRKRPPRLPRPRPRPDIHPRP: 0.167. The same measure for RRIRERPPRLPRPRPRPWCKPRP: 0.00398; for RRIRDRPPRLPRPRPRPRDDPRP: -0.0224. For RRIRMRPPRLPRPRPRPFQCPRP, the “shrunken log2 fold change” value is -0.153. The same measure for RRIRRRPPRLPRPRPRPGMEPRP: 0.0306. In the case of RRIRWRPPRLPRPRPRPCKEPRP it was -0.125; in that of RRIRHRPPRLPRPRPRPHFKPRP, -0.455; in that of RRIRVRPPRLPRPRPRPPQKPRP, 0.23. In the case of RRIRARPPRLPRPRPRPSVSPRP it was -0.457; in that of RRIRSRPPRLPRPRPRPQRWPRP, 0.319; in that of RRIRFRPPRLPRPRPRPQNPPRP, -0.231. Turning to RRIRMRPPRLPRPRPRPTLWPRP, the “shrunken log2 fold change” value worked out at 0.968.

Consider RRIRNRPPRLPRPRPRPQHMPRP, for which the “shrunken log2 fold change” value was -0.605. The same measure for RRIRDRPPRLPRPRPRPSRVPRP: 0.0593; for RRIRWRPPRLPRPRPRPNEWPRP: -0.0242; for RRIRYRPPRLPRPRPRPSRAPRP: -0.113. The same measure for RRIRTRPPRLPRPRPRPMLVPRP: -0.000238; for RRIRQRPPRLPRPRPRPHKLPRP: -0.544; for RRIRDRPPRLPRPRPRPLDCPRP: 0.118.

As for RRIRPRPPRLPRPRPRPNEKPRP, the “shrunken log2 fold change” value is 0.023. The same measure for RRIRVRPPRLPRPRPRPYWTPRP: -0.366; for RRIRSRPPRLPRPRPRPAPRPRP: 0.845. The same measure for RRIRVRPPRLPRPRPRPRIMPRP: -0.601; for RRIRCRPPRLPRPRPRPQRMPRP: -0.0914; for RRIRERPPRLPRPRPRPGYCPRP: -0.432. In the case of RRIRARPPRLPRPRPRPDAAPRP it was 1.48. With RRIRTRPPRLPRPRPRPGNGPRP, the “shrunken log2 fold change” value is -0.222.

As for RRIRCRPPRLPRPRPRPFTWPRP, the “shrunken log2 fold change” value was -0.188. The same measure for RRIRYRPPRLPRPRPRPSAIPRP: -0.939. In the case of RRIRGRPPRLPRPRPRPICKPRP it was 0.616. The same measure for RRIRQRPPRLPRPRPRPHATPRP: -0.0615. Regarding RRIRTRPPRLPRPRPRPDGGPRP, the “shrunken log2 fold change” value is -0.145. On to RRIRWRPPRLPRPRPRPRSDPRP, for which the “shrunken log2 fold change” value stood at 0.618. In the case of RRIRKRPPRLPRPRPRPDTNPRP it was 0.335; in that of RRIRPRPPRLPRPRPRPVIQPRP, -0.203; in that of RRIRHRPPRLPRPRPRPPQRPRP, 0.248.

RRIRWRPPRLPRPRPRPIDNPRP: the “shrunken log2 fold change” value is -0.406. The same measure for RRIRVRPPRLPRPRPRPRSYPRP: -0.0987. The same measure for RRIRRRPPRLPRPRPRPTWKPRP: 0.112; for RRIRDRPPRLPRPRPRPLMYPRP: -0.00328; for RRIRHRPPRLPRPRPRPIMKPRP: -0.317. In the case of RRIRSRPPRLPRPRPRPGKEPRP it was -0.0291; in that of RRIRMRPPRLPRPRPRPAIVPRP, -0.161; in that of RRIRWRPPRLPRPRPRPVYCPRP, -0.196.

Regarding RRIRARPPRLPRPRPRPTHCPRP, the “shrunken log2 fold change” value came to 0.518. The same measure for RRIRNRPPRLPRPRPRPAGRPRP: 0.486; for RRIRLRPPRLPRPRPRPAYQPRP: -0.142; for RRIRWRPPRLPRPRPRPTPMPRP: 0.24.

RRIRDRPPRLPRPRPRPSMEPRP: the “shrunken log2 fold change” value amounted to 0.0308. The same measure for RRIRIRPPRLPRPRPRPQKVPRP: -0.102; for RRIRHRPPRLPRPRPRPYMDPRP: -0.356.

RRIRRRPPRLPRPRPRPQWVPRP: the “shrunken log2 fold change” value was determined as 0.279. The same measure for RRIRDRPPRLPRPRPRPLLDPRP: 0.17; for RRIRHRPPRLPRPRPRPKWPPRP: 0.0116. The same measure for RRIRRRPPRLPRPRPRPDHCPRP: -0.0402; for RRIRVRPPRLPRPRPRPQYQPRP: -0.302.

Turning to RRIRIRPPRLPRPRPRPGRLPRP, the “shrunken log2 fold change” value was determined as 0.12. On to RRIRYRPPRLPRPRPRPKRHPRP, for which the “shrunken log2 fold change” value was -0.159. The same measure for RRIRHRPPRLPRPRPRPMQSPRP: -0.215; for RRIRWRPPRLPRPRPRPFNIPRP: -0.715. Consider RRIRGRPPRLPRPRPRPHFEPRP, for which the “shrunken log2 fold change” value was determined as 0.328.

For the sequence RRIRKRPPRLPRPRPRPCCQPRP, the “shrunken log2 fold change” value was -0.102. As for RRIRMRPPRLPRPRPRPGHDPRP, the “shrunken log2 fold change” value came to 0.0618. In the case of RRIRPRPPRLPRPRPRPSEGPRP it was -0.148; in that of RRIRIRPPRLPRPRPRPSMDPRP, -0.353. In the case of RRIRIRPPRLPRPRPRPCAWPRP it was -0.0154; in that of RRIRQRPPRLPRPRPRPERGPRP, 0.105; in that of RRIRQRPPRLPRPRPRPVKRPRP, 0.103. The same measure for RRIRNRPPRLPRPRPRPYIMPRP: -0.741.

As to RRIRIRPPRLPRPRPRPWSLPRP, the “shrunken log2 fold change” value was -0.449.

Turning to RRIRVRPPRLPRPRPRPSFRPRP, the “shrunken log2 fold change” value is -0.42.

Take RRIRQRPPRLPRPRPRPKIHPRP: the “shrunken log2 fold change” value is -0.558. In the case of RRIRPRPPRLPRPRPRPIGAPRP it was 0.288. In the case of RRIRWRPPRLPRPRPRPTEPPRP it was -0.0787. The same measure for RRIRNRPPRLPRPRPRPVDMPRP: -0.104.
